# Molecular target: the molecule itself
# Assay: crystal structure
protein,measurement,value
"S. cerevisiae 5-aminolevulinic acid synthase (Hem1), PLP-cleaved ALAS 58-548 (enzyme) not shown",stoichiometry N,2
